Patent publication US20200376119A1 (Hoffmann-La Roche, published 2020)

Target: T1, carcinoembryonic antigen (CEA) on MKN-45 tumor cells (human, UniProt P06731 35-702)
T1 sequence (looked up): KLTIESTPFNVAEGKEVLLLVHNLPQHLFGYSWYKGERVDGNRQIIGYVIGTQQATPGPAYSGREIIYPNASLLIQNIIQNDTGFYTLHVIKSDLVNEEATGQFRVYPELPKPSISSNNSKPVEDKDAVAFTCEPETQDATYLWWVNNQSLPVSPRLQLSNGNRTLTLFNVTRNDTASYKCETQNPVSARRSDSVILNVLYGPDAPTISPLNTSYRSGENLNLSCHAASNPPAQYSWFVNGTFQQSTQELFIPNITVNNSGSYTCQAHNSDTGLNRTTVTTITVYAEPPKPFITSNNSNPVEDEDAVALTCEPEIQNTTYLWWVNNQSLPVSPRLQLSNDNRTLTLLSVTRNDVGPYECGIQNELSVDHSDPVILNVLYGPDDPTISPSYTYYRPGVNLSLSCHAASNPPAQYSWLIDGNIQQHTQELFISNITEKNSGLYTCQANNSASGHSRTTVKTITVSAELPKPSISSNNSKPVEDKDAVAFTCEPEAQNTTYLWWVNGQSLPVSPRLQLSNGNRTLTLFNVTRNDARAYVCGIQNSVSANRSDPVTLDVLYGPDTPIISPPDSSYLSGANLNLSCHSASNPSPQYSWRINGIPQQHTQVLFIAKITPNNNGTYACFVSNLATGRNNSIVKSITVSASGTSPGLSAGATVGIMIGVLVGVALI
Assay: cell-based or functional assay

B1: CEA TCB (bispecific antibody)
chain 1: QAVVTQEPSLTVSPGGTVTLTCGSSTGAVTTSNYANWVQEKPGQAFRGLIGGTNKRAPGTPARFSGSLLGGKAALTLSGAQPEDEAEYYCALWYSNLWVFGGGTKLTVLSSASTKGPSVFPLAPSSKSTSGGTAALGCLVKDYFPEPVTVSWNSGALTSGVHTFPAVLQSSGLYSLSSVVTVPSSSLGTQTYICNVNHKPSNTKVDKKVEPKSC
chain 2: not shown
chain 3: QVQLVQSGAEVKKPGASVKVSCKASGYTFTEFGMNWVRQAPGQGLEWMGWINTKTGEATYVEEFKGRVTFTTDTSTSTAYMELRSLRSDDTAVYYCARWDFAYYVEAMDYWGQGTTVTVSSASTKGPSVFPLAPSSKSTSGGTAALGCLVKDYFPEPVTVSWNSGALTSGVHTFPAVLQSSGLYSLSSVVTVPSSSLGTQTYICNVNHKPSNTKVDKKVEPKSCDKTHTCPPCPAPEAAGGPSVFLFPPKPKDTLMISRTPEVTCVVVDVSHEDPEVKFNWYVDGVEVHNAKTKPREEQYNSTYRVVSVLTVLHQDWLNGKEYKCKVSNKALGAPIEKTISKAKGQPREPQVCTLPPSRDELTKNQVSLSCAVKGFYPSDIAVEWESNGQPENNYKTTPPVLDSDGSFFLVSKLTVDKSRWQQGNVFSCSVMHEALHNHYTQKSLSLSPGK
chain 4: DIQMTQSPSSLSASVGDRVTITCKASAAVGTYVAWYQQKPGKAPKLLIYSASYRKRGVPSRFSGSGSGTDFTLTISSLQPEDFATYYCHQYYTYPLFTFGQGTKLEIKRTVAAPSVFIFPPSDEQLKSGTASVVCLLNNFYPREAKVQWKVDNALQSGNSQESVTEQDSKDSTYSLSSTLTLSKADYEKHKVYACEVTHQGLSSPVTKSFNRGEC
EC50 of tumor cell killing (LDH release, MKN-45 cells with human PBMCs, E:T 10:1, 24 h): 615 pM
EC50 of tumor cell killing (LDH release, MKN-45 cells with human PBMCs, E:T 10:1, 48 h): 362 pM
